In US7638490B2, “Methods of affecting feeding and weight in mammals by administration of relaxin-3” (priority 2004, dated 2009):

B1: relaxin-3: polypeptide called relaxin-3 (INSL7) comprising the amino acid sequence of SEQ ID NO: 2; natural ligand of SALPR (protein, listed as Homo sapiens)
chain: MARYMLLLLLAVWVLTGELWPGAEARAAPYGVRLCGREFIRAVIFTCGGSRWRRSDILAHEAMGDTFPDADADEDSLAGELDEAMGSSEWLALTKSPQAFYRGRPSWQGTPGVLRGSRDVLAGLSSSCCKWGCSKSEISSLC

Legend:
SALPR [1] = target: T1, SALPR (Homo sapiens, UniProt Q9NSD7); experiment: Suppression of forskolin-increased transcription activity (CRE-PLAP reporter) in SALPR-SE302 cells; type: cell-based; conditions: forskolin 1 μmol/L, 1 day incubation, alkaline phosphatase reporter
T1 construct: expressed in transfected cells; host or cells: SE302 cells (HEK293 clone carrying a CRE-VIP promoter PLAP reporter), transduced with retrovirus vector pBabeCL(SALPR)IH and selected with hygromycin
T1 sequence (Q9NSD7 1-469): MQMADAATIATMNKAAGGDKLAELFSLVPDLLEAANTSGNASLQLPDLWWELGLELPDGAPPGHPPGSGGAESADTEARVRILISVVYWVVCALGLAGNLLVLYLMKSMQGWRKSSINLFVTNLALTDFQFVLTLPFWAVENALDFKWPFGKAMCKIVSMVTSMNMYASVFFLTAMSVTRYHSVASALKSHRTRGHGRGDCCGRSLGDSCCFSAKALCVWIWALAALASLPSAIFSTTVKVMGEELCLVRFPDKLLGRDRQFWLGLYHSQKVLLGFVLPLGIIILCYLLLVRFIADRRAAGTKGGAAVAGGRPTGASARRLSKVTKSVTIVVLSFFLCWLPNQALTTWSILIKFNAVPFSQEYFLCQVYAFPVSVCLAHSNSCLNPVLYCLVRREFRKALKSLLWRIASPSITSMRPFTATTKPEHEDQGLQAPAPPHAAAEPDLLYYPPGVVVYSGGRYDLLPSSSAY
Protocol: On the following day, relaxin-3 (Phoenix Pharmaceuticals) or insulin (Invitrogen) diluted with an assay medium (DMEM supplemented with 0.1% bovine serum albumin) in specified concentrations was added, after which forskolin (Calbiochem) was added to make a final concentration of 1 μmol/L. After 1 day incubation, 15 μl each of the cell supernatant was recovered and then transferred to a 96-well plate for chemiluminescence measurement (Sumitomo Bakelite), 60 μl of buffer solution for assay (280 mmol/L Na2CO3—NaHCO3, 8 mmol/L MgSO4, pH 10) and 70 μl of Lumiphos530 (Lumigen) were added and the reaction was carried out at room temperature for 1 hour, after which chemiluminescence for each well was measured by a fusion plate reader (Perkin Elmer) to assess the transcription activity.

[2] = Blood leptin concentration after single intracerebroventricular administration; type: in vivo, rat; conditions: rats, single icv administration, about 3 hours after administration, vs vehicle, t-test p<0.05
Protocol: The above-mentioned rats were anesthetized with Nembutal after the feeding measurement (about 3 hours after administration) and the blood was taken from the abdominal aorta. The blood taken was centrifuged at 1,750×g for 15 minutes and the resulting supernatant was stored at −80° C. Later, the amount of leptin in the supernatant was quantitatively determined by a rat leptin quantification ELISA kit (Amersham Bioscience).

[3] = Amount of feeding after single intracerebroventricular administration; type: in vivo; conditions: Wistar male rats, single icv, about 50 pmol/rat, 2 hours after administration, vs vehicle, t-test p<0.01
Protocol: Wistar male rats (7 weeks of age; Japan Charles River) were fed feed for experimental animals (MF; Oriental Yeast) to be adapted. The rats (250 to 300 g) received cannulation into the lateral cerebroventricle under anesthesia. Administration experiments were carried out a week or later. Relaxin-3 (60 μg; Phoenix Pharmaceuticals) was dissolved in DMSO and added with an artificial cerebrospinal fluid to make a final concentration of 200 μmol/L. The deposited precipitate was removed by centrifugation and the resulting supernatant was used as a relaxin-3 administration solution. The amount of administration (relaxin-3 concentration in the administration solution) was about 50 pmol/rat when calculated using the standard curve with relaxin-3 in the experimental system shown in Example 7. Rats with guide cannula implantation were divided into 2 groups (6 animals per group) and administered with the relaxin-3 administration solution or a vehicle solution (a solution having the same composition as (2) above without relaxin-3) at a rate of 5 μl/2 minutes using an infusion pump. Immediately after the intracerebroventricular administration of the administration solution, rats were put in a cage where pre-weighed feed was placed and fed ad libitum. The amount of feeding was calculated by measuring the decrease in feed 2 hours later.

[4] = Body weight gain and amount of feeding under chronic intracerebroventricular administration; type: in vivo, rat; conditions: Wistar male rats, chronic icv by osmotic pump, 100 μmol/L at 6 μl/day
Protocol: A relaxin-3 solution was prepared by dissolving relaxin-3 (Peptide Institute, Inc.) in physiological saline at a concentration of 100 μmol/L. A vehicle solution (physiological saline) or the relaxin-3 solution was poured into an osmotic pump (Alzet osmotic pump model 1002 (DURECT); delivering 6 μl/day), a tube and a cannula for administration, after which they were connected together. Wistar male rats (6 weeks of age; Japan Charles River) were fed feed for experimental animals (MF; Oriental Yeast) and adapted to individual cages for 4 days. Under anesthesia, a guide cannula was inserted into the lateral cerebroventricle of these rats (250-270 g) and an osmotic pump was implanted under the skin. The rats had free access to feed and their body weight and feeding were measured every morning. Further, the decrease in the amount of feed per day is shown as the amount of feeding (FIG. 8).

[5] = Epididymal fat weight, blood leptin and blood insulin after chronic intracerebroventricular administration; type: in vivo, rat; conditions: rats, chronic icv administration, day 14, vs vehicle
Protocol: After measuring body weight and the amount of feed on the last day of the experiment (day 14), the rats were anesthetized with Nembutal, epididymal fat was taken and the total fat weight was measured (FIG. 9). Further, the blood was taken from the abdominal aorta. The blood was centrifuged at 1,750×g for 15 minutes and the resulting supernatant was stored at −80° C. Later, the amount of leptin in the supernatant was quantitatively determined by a rat leptin measuring kit (L) (IBL) (FIG. 10A). Further, the amount of insulin in the supernatant was quantitatively determined by an ultra sensitive rat insulin measuring kit (Morinaga Institute of Biological Science) (FIG. 10B).

[6] = Spontaneous locomotor activity under chronic intracerebroventricular administration; type: in vivo, rat; conditions: rats, chronic icv; light phase days 2 and 7, dark phase days 3 and 8
Protocol: Spontaneous locomotor activity was measured using a Versamax system (Accuscan) in the light phase and dark phase on days when significant difference in body weight increasing activity in the rats receiving relaxin-3 administration was recognized.

SALPR [7] = target: T1, SALPR; experiment: Screening for relaxin-3 antagonistic substance using SALPR-SE302 cells (CRE-PLAP reporter); type: cell-based; conditions: 3 μmol/L forskolin, relaxin-3 at 3 nmol/L
[8] = Body weight gain under chronic intracerebroventricular administration (locomotor study); type: in vivo, rat; conditions: Wistar male rats (5 weeks of age), chronic icv by osmotic pump, from day 1 after administration
Protocol: A relaxin-3 solution was prepared by dissolving relaxin-3 (Peptide Institute, Inc.) in physiological saline at a concentration of 100 μmol/L. A vehicle solution (physiological saline) or the relaxin-3 solution was poured into an osmotic pump (Alzet osmotic pump model 1002 (DURECT), delivering at 6 μ/day), a tube and a cannula for administration, after which they were connected together. Wistar male rats (5 weeks of age; Japan Charles River) were fed feed for experimental animals (MF; Oriental Yeast) and adapted to individual cages for 5 days. Under anesthesia, a guide cannula was inserted into the lateral cerebroventricle of these rats (170-200 g) and an osmotic pump was implanted under the skin. The operation date was set to be day 0. The rats had free access to feed and water and the body weight was measured every morning, except on days for locomotor activity measurement (FIG. 11).

Molecule	effect on increase in transcription activity by forskolin (SALPR [1])	blood leptin concentration [2]	amount of feeding [3]	amount of feeding ([4]; from day 1)	body weight increase ([4]; from day 1 after operation)	amount of epididymal fat [5]	insulin concentration in blood [5]	leptin concentration in blood [5]	spontaneous locomotor activity (total for 90 minutes) [6]	effect on increase in transcription activity by forskolin (SALPR [7])	body weight increase [8]
insulin: related peptide (Invitrogen) used as specificity control in the SALPR reporter test [reference compound]	not affected	–	–	–	–	–	–	–	–	–	–
B1	suppressed via SALPR activation the increase in transcription activity by forskolin	significantly increased	significantly increased	significant increase in the amount of feeding	significant increase in body weight	significantly increased	significantly increased	significantly increased	No significant change in locomotor activity	suppressed the increase in transcription activity by forskolin	significant increase in body weight
